# Measurements reported in patent US20170190751A1 (published 2017).
# Biological target: mouse megalin (mouse, UniProt A2ARV4 26-4660)
# Test: cell-based or functional assay
# mouse megalin, sequence (A2ARV4 26-4660 limits assumed): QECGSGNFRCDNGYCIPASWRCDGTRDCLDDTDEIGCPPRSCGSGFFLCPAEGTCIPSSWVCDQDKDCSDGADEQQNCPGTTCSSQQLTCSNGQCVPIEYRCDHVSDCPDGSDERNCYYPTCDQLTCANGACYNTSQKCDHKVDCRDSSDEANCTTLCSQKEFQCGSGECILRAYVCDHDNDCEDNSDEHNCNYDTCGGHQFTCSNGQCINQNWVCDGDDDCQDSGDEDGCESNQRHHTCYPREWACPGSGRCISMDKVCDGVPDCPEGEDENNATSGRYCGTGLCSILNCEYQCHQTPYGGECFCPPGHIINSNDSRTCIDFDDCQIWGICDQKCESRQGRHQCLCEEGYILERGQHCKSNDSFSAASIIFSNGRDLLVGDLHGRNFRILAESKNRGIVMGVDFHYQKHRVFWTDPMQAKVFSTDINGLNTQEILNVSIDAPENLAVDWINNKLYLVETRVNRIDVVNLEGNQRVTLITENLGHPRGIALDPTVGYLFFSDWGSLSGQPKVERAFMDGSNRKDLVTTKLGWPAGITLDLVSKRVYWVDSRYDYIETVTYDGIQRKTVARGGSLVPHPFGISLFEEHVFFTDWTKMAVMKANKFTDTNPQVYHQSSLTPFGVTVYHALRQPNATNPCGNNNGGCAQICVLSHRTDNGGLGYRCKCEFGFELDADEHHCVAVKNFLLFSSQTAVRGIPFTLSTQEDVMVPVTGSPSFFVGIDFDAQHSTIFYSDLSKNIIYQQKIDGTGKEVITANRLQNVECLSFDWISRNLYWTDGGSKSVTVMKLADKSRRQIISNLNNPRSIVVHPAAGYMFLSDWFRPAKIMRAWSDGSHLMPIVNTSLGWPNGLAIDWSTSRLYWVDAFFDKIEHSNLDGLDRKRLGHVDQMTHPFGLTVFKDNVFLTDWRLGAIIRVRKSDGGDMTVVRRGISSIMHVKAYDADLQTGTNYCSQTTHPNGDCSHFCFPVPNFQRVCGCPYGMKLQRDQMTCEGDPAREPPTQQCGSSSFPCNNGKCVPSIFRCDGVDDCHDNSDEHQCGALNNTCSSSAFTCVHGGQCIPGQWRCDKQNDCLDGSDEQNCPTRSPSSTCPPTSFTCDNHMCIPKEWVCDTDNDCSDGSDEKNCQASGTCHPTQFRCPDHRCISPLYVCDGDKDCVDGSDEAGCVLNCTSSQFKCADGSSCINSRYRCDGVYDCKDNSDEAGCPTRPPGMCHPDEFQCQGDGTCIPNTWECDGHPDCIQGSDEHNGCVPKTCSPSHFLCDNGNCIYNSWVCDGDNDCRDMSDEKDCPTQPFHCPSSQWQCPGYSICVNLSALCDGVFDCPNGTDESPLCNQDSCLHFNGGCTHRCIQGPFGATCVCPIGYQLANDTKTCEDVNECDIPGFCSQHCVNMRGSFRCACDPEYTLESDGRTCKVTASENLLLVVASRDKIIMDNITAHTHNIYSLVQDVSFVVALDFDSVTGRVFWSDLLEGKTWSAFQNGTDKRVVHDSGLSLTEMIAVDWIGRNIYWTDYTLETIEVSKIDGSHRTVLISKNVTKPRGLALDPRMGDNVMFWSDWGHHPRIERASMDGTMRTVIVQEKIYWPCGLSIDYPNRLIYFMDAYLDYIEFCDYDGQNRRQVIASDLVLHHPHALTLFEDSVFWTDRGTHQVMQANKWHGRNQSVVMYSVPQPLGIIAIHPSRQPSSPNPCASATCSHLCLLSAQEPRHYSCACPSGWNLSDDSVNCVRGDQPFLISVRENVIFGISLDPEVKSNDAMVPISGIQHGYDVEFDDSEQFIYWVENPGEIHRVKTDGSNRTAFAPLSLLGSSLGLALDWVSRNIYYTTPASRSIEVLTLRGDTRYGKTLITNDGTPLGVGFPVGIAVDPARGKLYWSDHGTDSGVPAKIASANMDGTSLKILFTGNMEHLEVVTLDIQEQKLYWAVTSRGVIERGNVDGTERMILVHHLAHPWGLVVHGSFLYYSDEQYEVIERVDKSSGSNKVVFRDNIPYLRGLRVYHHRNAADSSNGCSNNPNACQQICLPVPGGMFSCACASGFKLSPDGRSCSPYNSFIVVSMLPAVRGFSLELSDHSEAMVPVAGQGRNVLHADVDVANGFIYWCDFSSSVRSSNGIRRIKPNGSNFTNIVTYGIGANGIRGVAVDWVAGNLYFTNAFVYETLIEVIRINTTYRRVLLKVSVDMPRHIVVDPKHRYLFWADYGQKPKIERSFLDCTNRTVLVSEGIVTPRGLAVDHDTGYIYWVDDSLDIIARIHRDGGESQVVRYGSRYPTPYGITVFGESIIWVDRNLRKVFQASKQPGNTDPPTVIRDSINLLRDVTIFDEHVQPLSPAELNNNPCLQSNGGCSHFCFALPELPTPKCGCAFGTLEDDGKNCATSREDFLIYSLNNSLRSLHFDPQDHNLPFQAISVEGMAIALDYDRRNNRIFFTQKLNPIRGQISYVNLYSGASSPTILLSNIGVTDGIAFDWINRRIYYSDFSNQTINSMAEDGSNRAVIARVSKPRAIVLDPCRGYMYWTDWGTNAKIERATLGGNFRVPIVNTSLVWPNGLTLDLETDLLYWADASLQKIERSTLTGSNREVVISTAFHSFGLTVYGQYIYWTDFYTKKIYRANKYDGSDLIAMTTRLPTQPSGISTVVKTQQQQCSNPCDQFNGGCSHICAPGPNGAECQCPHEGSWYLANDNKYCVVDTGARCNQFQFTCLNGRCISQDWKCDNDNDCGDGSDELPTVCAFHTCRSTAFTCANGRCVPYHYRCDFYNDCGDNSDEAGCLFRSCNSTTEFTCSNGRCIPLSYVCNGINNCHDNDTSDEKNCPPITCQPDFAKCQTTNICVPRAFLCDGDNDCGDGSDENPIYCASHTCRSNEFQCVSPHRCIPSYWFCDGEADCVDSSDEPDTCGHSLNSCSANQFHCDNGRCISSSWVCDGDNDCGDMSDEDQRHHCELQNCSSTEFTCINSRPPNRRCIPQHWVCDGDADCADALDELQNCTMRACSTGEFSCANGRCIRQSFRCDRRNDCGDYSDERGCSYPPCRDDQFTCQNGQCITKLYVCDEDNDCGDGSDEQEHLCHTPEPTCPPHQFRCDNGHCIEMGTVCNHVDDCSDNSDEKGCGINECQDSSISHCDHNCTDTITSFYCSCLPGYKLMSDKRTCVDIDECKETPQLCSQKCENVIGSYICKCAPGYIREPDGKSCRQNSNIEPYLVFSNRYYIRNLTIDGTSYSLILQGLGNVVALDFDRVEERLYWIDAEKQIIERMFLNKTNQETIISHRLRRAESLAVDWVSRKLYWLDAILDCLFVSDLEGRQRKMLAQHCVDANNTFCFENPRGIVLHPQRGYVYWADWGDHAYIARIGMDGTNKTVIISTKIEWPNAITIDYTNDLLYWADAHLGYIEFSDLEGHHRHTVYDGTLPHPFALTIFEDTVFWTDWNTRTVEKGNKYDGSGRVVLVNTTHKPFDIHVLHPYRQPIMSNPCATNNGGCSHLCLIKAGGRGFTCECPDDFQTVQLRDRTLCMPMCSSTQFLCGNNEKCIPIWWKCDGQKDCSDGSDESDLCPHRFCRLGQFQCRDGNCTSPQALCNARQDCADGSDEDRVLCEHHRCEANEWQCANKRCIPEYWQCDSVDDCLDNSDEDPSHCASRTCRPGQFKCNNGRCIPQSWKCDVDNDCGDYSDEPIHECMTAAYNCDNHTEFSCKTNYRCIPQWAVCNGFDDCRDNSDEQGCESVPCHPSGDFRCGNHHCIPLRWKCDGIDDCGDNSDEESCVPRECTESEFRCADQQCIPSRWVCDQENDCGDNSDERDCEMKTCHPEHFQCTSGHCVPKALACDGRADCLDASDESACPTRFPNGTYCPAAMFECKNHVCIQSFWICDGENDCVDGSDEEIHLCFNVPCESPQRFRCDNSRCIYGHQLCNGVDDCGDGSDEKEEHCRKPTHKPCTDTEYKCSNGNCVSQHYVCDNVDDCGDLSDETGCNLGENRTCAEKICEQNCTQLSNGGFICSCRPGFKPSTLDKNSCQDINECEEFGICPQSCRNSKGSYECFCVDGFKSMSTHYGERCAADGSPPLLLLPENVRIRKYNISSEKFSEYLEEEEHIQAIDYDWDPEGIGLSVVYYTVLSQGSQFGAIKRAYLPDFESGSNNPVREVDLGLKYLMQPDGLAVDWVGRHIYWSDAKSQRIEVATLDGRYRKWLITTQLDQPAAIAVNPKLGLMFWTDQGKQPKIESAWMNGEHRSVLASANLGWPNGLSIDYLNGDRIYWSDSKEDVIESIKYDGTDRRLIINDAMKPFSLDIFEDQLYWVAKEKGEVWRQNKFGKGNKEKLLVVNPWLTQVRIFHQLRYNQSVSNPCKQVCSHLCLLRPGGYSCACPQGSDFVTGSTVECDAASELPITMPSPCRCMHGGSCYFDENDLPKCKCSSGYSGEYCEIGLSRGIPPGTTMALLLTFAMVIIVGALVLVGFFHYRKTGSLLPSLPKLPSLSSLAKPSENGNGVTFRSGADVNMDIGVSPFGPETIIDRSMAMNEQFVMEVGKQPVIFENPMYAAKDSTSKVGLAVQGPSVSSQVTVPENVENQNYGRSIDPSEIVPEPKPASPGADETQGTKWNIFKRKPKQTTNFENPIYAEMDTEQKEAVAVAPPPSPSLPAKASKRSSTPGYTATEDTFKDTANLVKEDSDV
row,% of i.p. injected NGAL-enterochelin-55Fe3+ complex delivered to mouse urine after 3 hours (escape from renal reabsorption) [%],Binder
1,6,I1 NGAL mutant (ligand) QDSTSDLIPAPPLSSVPLQQNFQDNQFQGKWYVVGLAGNAILREDKDPQKMYATIYELKEDKSYNVTSVLFRDDGCDYWIRTFVPGCQPGEFTLGNIKSYPGLTSYLVRVVSTNYNQHAMVFFKKVSQNQEYFKITLYGRTKELTSELKENFIRFSKSLGLPENHIVFPVPIDQCIDG
2,0.17,G3 NGAL mutant (ligand) QDSTSDLIPAPPLSKVPLQQNFQDNQFQGKWYVVGLAGNAILREDKDPQKMYATIYELKEDKSYNVTSVLFRKKKCDYWIRTFVPGCQPGEFTLGNIKSYPGLTSYLVRVVSTNYNQHAMVFFKKVSQNREYFKITLYGRTKELTSELKENFIRFSQSLGLPENHIVFPVPIDQCIDG
3,0.26,C3 NGAL mutant (ligand) QDSTSDLIPAPPLSSVPLQQNFQDNQFQGKWYVVGLAGNAILREDKDPQTMYATIYELKEDKSYNVTSVLFQKKKCDYWIRTFVPGCQPGEFTLGNIKSYPGLTSYLVRVVSTNYNQHAMVFFKKVSQNREYFKITLYGRTKELTSELQENFIRFSQSLGLPENHIVFPVPIDQCIDG
4,6.9,I3 NGAL mutant (ligand) QDSTSDLIPAPPLSKVPLQQNFQDNQFQGKWYVVGLAGNAILREDKDPQKMYATIYELKEDGSYNVTSVLFRDDGCDYWIRTFVPGCQPGEFTLGNIQSYPGLTSYLVRVVSTNYNQHAMVFFKKVSQNREYFKITLYGRTKELTSELKENFIRFSKSLGLPENHIVFPVPIDQCIDG
5,2.9,K5 NGAL mutant (ligand) QDSTSDLIPAPPLSSVPLQQNFQDNQFQGKWYVVGLAGNAILREDEDPQKMYATIYELKEDKSYNVTSVLFRKKKCDYWIRTFVPGCQPGEFTLGNIQSYPGLTSYLVRVVSTNYNQFAMVFFKKVSQNQEYFKITLYGRTKELTSELQENFIRFSKSLGLPENNIVFPVPIDQCIDG
6,19.6,K3 NGAL mutant protein (ligand) QDSTSDLIPAPPLSSVPLQQNFQDNQFQGKWYVVGLAGNAILREDEDPQKMYATIYELKEDKSYNVTSVLFRDDGCDYWIRTFVPGCQPGEFTLGNIQSYPGLTSYLVRVVSTNYNQFAMVFFKKVSQNQEYFKITLYGRTKELTSELQENFIRFSKSLGLPENNIVFPVPIDQCIDG
7,0.13,B4 NGAL mutant (ligand) QDSTSDLIPAPPLSKVPLQQNFQDNQFQGKWYVVGLAGNAILREDEDPQKMYATIYELKEDKSYNVTSVLFRKKKCDYWIRTFVPGCQPGEFTLGNIQSYPGLTSYLVRVVSTNYNQHAMVFFKKVSQNREYFKITLYGRTKELTSELKENFIRFSKSLGLPENHIVFPVPIDQCIDG
8,0.1,D1 NGAL mutant (ligand) QDSTSDLIPAPPLSKVPLQQNFQDNQFQGKWYVVGLAGNAILREDKDPQKMYATIYELKEDKSYNVTSVLFRDDGCDYWIRTFVPGCQPGEFTLGNIKSYPGLTSYLVRVVSTNYNQHAMVFFKKVSQNREYFKITLYGRTKELTSELKENFIRFSKSLGLPENHIVFPVPIDQCIDG
9,1.9,K1 NGAL mutant (ligand) QDSTSDLIPAPPLSSVPLQQNFQDNQFQGKWYVVGLAGNAILREDEDPQKMYATIYELQEDKSYNVTSVLFRKKKCDYWIRTFVPGCQPGEFTLGNIQSYPGLTSYLVRVVSTNYNQFAMVFFKKVSQNQEYFKITLYGRTKELTSELQENFIRFSKSLGLPENNIVFPVPIDQCIDG
10,9.3,K2 NGAL mutant (ligand) QDSTSDLIPAPPLSSVPLQQNFQDNQFQGKWYVVGLAGNAILREDKDPQKMYATIYELKEDKSYNVTSVLFRDDGCDYWIRTFVPGCQPGEFTLGNIQSYPGLTSYLVRVVSTNYNQFAMVFFKKVSQNQEYFKITLYGRTKELTSELQENFIRFSKSLGLPENNIVFPVPIDQCIDG
11,0.11,F2 NGAL mutant (ligand) QDSTSDLIPAPPLSKVPLQQNFQDNQFQGKWYVVGLAGNAILREDEDPQKMYATIYELQEDKSYNVTSVLFRKKKCDYWIRTFVPGCQPGEFTLGNIKSYPGLTSYLVRVVSTNYNQHAMVFFKKVSQNREYFKITLYGRTKELTSELKENFIRFSKSLGLPENHIVFPVPIDQCIDG
12,0.27,H2 NGAL mutant (ligand) QDSTSDLIPAPPLSSVPLQQNFQDNQFQGKWYVVGLAGNAILREDKDPQKMYATIYELKEDKSYNVTSVLFRKKKCDYWIRTFVPGCQPGEFTLGNIQSYPGLTSYLVRVVSTNYNQFAMVFFKKVSQNQEYFKITLYGRTKELTSELQENFIRFSKSLGLPENNIVFPVPIDQCIDG
13,0.18,A2 NGAL mutant (ligand) QDSTSDLIPAPPLSSVPLQQNFQDNQFQGKWYVVGLAGNAILREDKDPQKMYATIYELKEDKSYNVTSVLFRKKKCDYWIRTFVPGCQPGEFTLGNIKSYPGLTSYLVRVVSTNYNQHAMVFFKKVSQNREYFKITLYGQTQELTSELKENFIRFSKSLGLPENHIVFPVPIDQCIDG
14,0.05,I5 NGAL mutant (ligand) QDSTSDLIPAPPLSSVPLQQNFQDNQFQGKWYVVGLAGNAILREDKDPQKMYATIYELKEDGSYNVTSVLFRDDGCDYWIRTFVPGCQPGEFTLGNIKSYPGLTSYLVRVVSTNYNQHAMVFFKKVSQNQEYFKITLYGRTKELTSELKENFIRFSKSLGLPENHIVFPVPIDQCIDG
